# Assay results taken from paper PMC4560160.
# Tests used:
# [1] = biological target: human CCR5 expressed on DHFR-deficient CHO cells (CHO-CCR5) (human) (UniProt P51681)
# [2] = biological target: CCR5 endogenously expressed on human blood-derived monocytes, monocyte-derived macrophages (MDMs) and T cell blasts (human (endogenous in blood monocytes, MDMs and T cell blasts)) (UniProt P51681)
# [3] = biological target: CCR5 endogenously expressed on human blood-derived monocytes, monocyte-derived macrophages (MDMs) and T cell blasts (human (endogenous in blood monocytes, MDMs and T cell blasts)) (UniProt P51681); remark: listed apart in the source
# Chain of CCL5 (P13501 24-91): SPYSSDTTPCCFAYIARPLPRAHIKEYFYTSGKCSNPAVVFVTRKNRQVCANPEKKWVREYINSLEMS
Substance,"CCR5 down-modulation: reduction of the specific binding of each anti-CCR5 mAb to the surface of CHO-CCR5 cells after 1 h at 37°C with 100 nM CCL5, flow cytometry [1] [%]","CCR5 down-modulation on monocytes after overnight culture with 100 nM analog: reduction of the surface binding signal of MC5, 2D7 and CTC5, flow cytometry [2] [%]","CCR5 down-modulation on MDMs after overnight exposure to 100 nM ligand, detected with CTC5, flow cytometry [3] [%]"
CCL5 (from UniProt P13501 24-91) (ligand),50,,
"PSC-RANTES: Nα(n-nonanoyl)-des-Ser(1)-[L-thioprolyl(2), L-cyclohexylglycyl(3)]-RANTES(4-68) (from UniProt P13501 27-91) (ligand)",,50,> 50
amino-oxypentane (AOP)-RANTES (from UniProt P13501 24-91) (ligand),,50,> 50
